This is an account of results in article PMC8539926.

For assay [1], the target named is CXCR4 (UniProt P61073).
The target in assay [2] is CXCR4 (UniProt P61073). The source holds these as a separate data set.
Assay [3] concerns the target CXCR4 (UniProt P61073). The source holds these as a separate data set.

Sequence of UniProt P61073 (P61073 whole entry): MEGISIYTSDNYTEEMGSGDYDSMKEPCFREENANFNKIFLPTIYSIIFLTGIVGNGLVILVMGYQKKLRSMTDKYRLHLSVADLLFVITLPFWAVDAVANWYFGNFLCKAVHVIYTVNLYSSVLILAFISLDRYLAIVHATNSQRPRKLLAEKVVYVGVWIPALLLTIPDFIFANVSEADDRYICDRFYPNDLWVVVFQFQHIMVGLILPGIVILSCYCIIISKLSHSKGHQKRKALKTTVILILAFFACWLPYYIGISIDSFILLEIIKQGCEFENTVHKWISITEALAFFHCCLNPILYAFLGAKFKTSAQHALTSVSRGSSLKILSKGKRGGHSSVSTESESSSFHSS

In the assay with CXCR4 [1], “CXCL12 wild type (from UniProt P48061-2 22-89) (ligand)” registered an Emax of IP accumulation, COS-7 cells with CXCR4-eYFP and chimeric Gαqi protein, normalized to CXCL12 wt of 100%. In the assay with CXCR4 [2], this substance showed a concentration of the best response, Transwell migration of Jurkat cells (endogenous CXCR4), 2 h, dilution series of 30 nM. As for “[S4V]-[V49A]-CXCL12 (from UniProt P48061-2 22-89) (ligand)”, the fold decrease in Jurkat cell migration (endogenous CXCR4) compared with CXCL12 wt, Transwell assay with CXCR4 [3] was 11 fold.

In the case of “[S4V]-[V49A]-CXCL12-GPLS (from UniProt P48061-2 22-89) (ligand)”, the fold regain of migration potential against compound 4, Jurkat cells (endogenous CXCR4), Transwell assay with CXCR4 [3] amounted to 2 fold.

Substance “[S4V]-[V49A]-CXCL12-MMPCS-SBP (from UniProt P48061-2 22-89) (ligand)” gave a concentration of the migration maximum, Transwell migration of Jurkat cells (endogenous CXCR4), 2 h, dilution series with CXCR4 [2] of 700 nM.
